{"source": "paper PMC12599289", "about": "“Kinetic and homology model analysis of diaminopimelate decarboxylase from Cyanothece sp. ATCC 51142: unveiling a key enzyme in lysine biosynthesis” (Bioscience Reports, 2025)", "proteins": {"B1": {"name": "CsDAPDC (Crocosphaera subtropica ATCC 51142) (protein)", "chain": "MIATPTKTPHTGQDYLKIKINATDSTKRSPNQSLLPLTANINAHDHLEIGGCDLQTLVEQFGSPLYILDEMTLRTACRQYRDNFQTYYKGESQVIYASKAWSCLAVVGVIARENLGFDVVSGGELYTTQKALTQLGYSCQEIAKKIYFHGNNKSEAELKEAIKVGCTIIVDNWLELQTLAQLGNDTPNLTIPILIRLTPGIECHTHEYIRTGHLDSKFGFDPNQLEAVFTYISQQTSLDCRGLHAHIGSQIFERQPHQDLAGVLVEWLKIGREYGLNLSELNIGGGLGICYTEEDDPPSIEEWVKAVSEAVMKACQRCEIDLPKLIAEPGRSLIGSACVTAYTVGSRKEIPELRTYIAVDGGMSDNPRPITYQSLYRVALANRMSAEISETVTIAGKHCESGDIVIKDAQLPQTHPGDILVIMGTGAYNYSMASNYNRLPRPAAVMVNQGEANLIVRRETYDDLIRQDCLPQRLLP", "notes": "tag removal not mentioned; dimer only from homology model"}}, "substrate": "NC(CCCC(N)C(=O)O)C(=O)O", "test": "purified protein", "type": "biochemical, Crocosphaera subtropica", "conditions": "0.1 mM PLP, 20 mM Tris-HCl pH 8.0, methods say room temperature, abstract says 30°C, DAP 0.5-15 mM", "data": [{"protein": "B1", "values": [{"measurement": "Km", "result": "1200 ± 170", "unit": "µM"}, {"measurement": "kcat", "result": 1.68, "unit": "s⁻¹"}]}]}
